Results taken from the DeepSol protein solubility set.

Test: soluble on expression in E. coli; label from the status in PepcDB or PDB records

Sequence | soluble on expression in E. coli
MGRWWRYKWITFHPSLTQHWLWYAYNTKTGGVLAYTFGPRNDETCRELLALLTPFCIGMVTSDDWGSYAREVPKEKHLTGKIFTQRIARNNRTLRTRIKRLARKTICFSRSVEIHEKVIGSFIEKHMFYLEHHHHHH | soluble
MLTMSKAVESLQRFLMPKAGEPHDVRMLYLIESEHNNGRAMWNDRHSVAISAGDEVSFQTYFNAFPASYWRRWTQLDNVILRVEVTGTARVDVFRTKIDGASYAEQGQVVSDGVVEFDLSLAPFEDGGWLWFYVTAETDVTFKAGWYAPQAPQPQVMPDGSQVGPFDKRVTVGIPTFNRPTDAVAALTALSEDPEVDAVIDAVIMPDQGNKHPADEPGYKEATEHFGDRFFEFRQGNLGGSGGYSRIMYEALGGVDGTKPAGAAQSPYILYMDDDIAIEPDSVLRALQVARYAKSPILVGGQMLSLQERSHLHSMGEVVDRNIFMWTSAPFVHYDHDFAKYPLSDRPSPDAPSDRPKTEDLHRRIDVDYNGWWMCMIPRVVAEQIGQPLPLFIKWDDAEYGLRAGNAGFATATWPGVAIWHLAWSDKDDAIDWQAYFHLRNRLIVGAIENGNPAGMVRSMQKATLKHLLCLEYSTVAVQNEAMKDFLAGPSHLFDILETSLPHINALRKNYSDAVVLPSAADLPRPSGAPGVPTVYNLSGPLAPVKKVGWLLKGIKHTLSKENPQHHDVPQANLAPINARWFSLSRLDGATVSTADGRGVVYRKRDRAQAKELLQESYRLQKEVAANFDRLREEYRAAHKELTSREAWAKIFEEPQGAEES | not soluble
PAQDNSRFVIRDRNWHPKALTPDYKTSIARSPRQALVSIPQSISETTGPNFSHLGFGAHDHDLLLNFNNGGLPIGERIIVAGRVVDQYGKPVPNTLVEMWQANAGGRHRHKNDRYLAPLDPNFGGVGRCLTDSDGYYSFRTIKPGPYPWRNGPNDWRPAHIHFGISGPSIATKLITQLYFEGDPLIPMCPIVKSIANPEAVQQLIAKLDMNNANPMDCLAYRFDIVLRGQRKTHFENC | soluble
MQIPHGELRTLTYHSNALKSERQMYVWTPPGYSESSKPLPVLYFYHGFGDTGASAVVQGRIPQMMDNLLAEKKIEPMLVVIPDTETDVPGIIPEEYPPQERRKVFYPRNALAADRELIHDIIPAIGKRFNVRQDANGRALAGLSQGGYQALVSGMSHLDHFGWLATFSGVTTETVPNMAVAAQLERPEQINQQLKNLTVVIGETDNITGKDIAGLKTMLEQKNIRFDYTHYPNLGHEMDVWRPAYSEFVQKLFKLEHHHHHH | not soluble
GPGSMRAVVFSDVASAELREHIRAIASTSYAEVVYVDVSESAEADLATAWHTRYGGASHSPPAARDELDDLKNTFVCYLTEQKTIEDSDVVYAVFVAEVHTLVLTPSVTLTPLMHATADGSVSARKAAIESFFSVAPSSSSAEVIVVEGGDGAGKETQTGLLVRRVHAAGDEVHALDFPNEKGLYGGLVRAVLSGKKGPISELNPQLFSFLYSLNRFGCARQLHFWLRRGSSVVLDRYYTANFGHQASKLPPEEREAFISDLEFMEVEWLGLPRATYVLYLDLPPAVALEAMRQDATRKQLDIHETAGSDYKERVRQTYRWCCEHLPGWHHIECFSDDGRRLTREEVHASITSHLRDAGSRAIGAPS | not soluble
MSLNTVYHSYQSLPNEGWGKSDTLSFQCPVTDSIPGTLRLFAEVRNRSEYPYRNLYLFIHENLLDSTVWRTDTIAVNLADSTGRWTGNGWGSIYQTAVFVKSVRPLHPGNYTVKIVHGMQDEKLTGLNDVGIRIEKQGEGHHHHHH | soluble
MGSDKIHHHHHHMSLKKQIPIIFENTHYFIVNKPPGIPSQPPDCRTWGRTHPNLDPTPLLERFKAIYYSHREVELCRTVHRLDHCVTGGMLIAKTKDGSVKFSRFLQKGGNNGYKLQRKYVAIVESSGRFNKPNNYEIKYGPKYNFLISHGGREITKFKEVDENCIVLQLVTGKKHQIRNHVSQILNQPILNDKRHGSTVNFPELFNDQIALHSACIITKIGLQTKTHLIPMEHNNTGQLWSRKYVNEEGEFTLPIKEVLLENWDQ | not soluble
AEVNDPRVGFVAVVTFPVDGPATQHKLVELATGGVQEWIREVPGFLSATYHASTDGTAVVNYAQWESEQAYRVNFGADPRSAELREALSSLPGLMGPPKAVFMTPRGAILPS | soluble
MSLLTPEQIAAAQKANIESLFGLTTKAFEGVEKLIELNLQVVKSTLAESQENVQRALSVKDAQELLALQASLTQPIAEKVLAYGRHVYEIASATQAEFAKVAEAQYEEQNRKVQALVDNVAKNAPAGSETAVAALKSAINAANTTYETVQK | not soluble
SNSGEPAPVLSSPTPTDLSTFLSFPSPEKLLRLGPKVSVLIVQQTDTSDPEKVVSAFLKVASVFRDDASVKTAVLDAIDALMKKAFSCSSFNSNTFLTRLLIHMGLLKSEDKIKAIPSLHGPLMVLNHVVRQDYFPKALAPLLLAFVTKPNGALETCSFARHNLLQTLYNI | soluble
MAVTISGVRKHSPAYRHGIQAGERLLTLNGNEIMDVLDYRFYQLNTALVLELENNRGERRTVSLKKPEYEEIGLEFETYLMDRQHSCKNKCVFCFIDQLPKGLRKSLYFKDDDSRLSFLFGNYVTLTNLTEHEISRIIKMHISPMNISVHTTNPELRVKMMKNPRAGEALSIIRRFAQAGIKINCQIVLCPGYNDGEELKRTLSDLETMCPQVQAVAVVPVGITRYRQNLPEMRSFTRETAGEAIDLIESFGEKCLQKYGTRVAYPGDEFYLKAERPLPPAGFYEDFSMLENGVGLLPLLMDEFYSALEEAGETGGRKREITIATGMAPREYIRGFLDDAIKKFPHISGRVTPIVNRFFGETITVSGLVTGTDLIEQLSSVDLGDELLIPACMLRREGDLFLDDVSLQDVEAALKVPVRPVPNDGYAFLDAILGSESLEHHHHHH | not soluble
MKPIDRFSYLKNNRVSQDTSSLVQCYLPIIGQEALSLYLYTISFWDNGRKEYLFSSILNHLNFGMDRLIKSLKILSAFNLLTLYQKGDVYQLALHAPLSSQDFLGHPVYRRLLEKKIGDVAVEDLKVESADGEEIPVSLNQVFPELAELGSQEDLGLKKKVANDFDLEHFRQLMARDGLRFADEQSDVLNLFAIAEEKKWTWFETYQLAKSTAVSQVISTKRMREKIAQKPVSSDFSLKEATIIKEAKSKTALQFLAEIKQTRKGTITQTERELLQQMAGLGLLDEVINIILLLTFNKVDSANINEKYAMKVANDYAYQKIHSAEEAVLRIRDRGQKAKTQKQNQTAPEKTNVPKWSNPEYKNETSEETRLELERKKQELLARLEKG | soluble
MGSDKIHHHHHHMSKEIDIEYYHQLALQKQKEHRKVLANLKKKPPKNLDKIAQQIHQEVFEEIDCTACANCCKTLGPDFKEADITRIAKYFKMKLPAFEAEFLQVDADGDKVFKSMPCPFLGGDNLCSIYDVRPKACREFPHTDRKKIHQINHLTIKNTLTCPAAYLFVEKLKDKL | not soluble
MAHHHHHHMKKNLIRWGEKVTDELTKVTLTDKPLGTDFDQGIENLQIKFKELFKIWKNASNKLINDFTSKLDTTSYLSSLQNFVDNEYEFYDSASSVCDEETNS | not soluble
MGSDKIHHHHHHMTNDAIVIGSGIGGLVTATQLAAKGAKVLVLERYLIPGGSAGYFERQGYRFDVGASMIFGLGQNGTTNLLTRALTAVNVSQDAIADPVQIHYHLPQGLDLKVDRVYEKFLQNLIAHFPHEEKGIRRFYDECQKVFKCLNSMDLLSLEEPWYLLRVFFQHPLACLGLVKYLPQNAGDFARRYIKDPKLLKFIDMECYCWSVVPSDMTPMINAGMVFSDRHYGGVNYPKGGVGQIAQKLVEGLEKAGGKIQYKARVTKILTEKGKAVGVQLANGKVYRGKRIVSNATRWDTFEQLLPAEEMPLNEKKWQQNYQKSPSFLSLHIGVKESVLPVGTECHHILLEGWEKMTAVEGTIFVSIPTLLDPDLAPSGYHIIHAFTPHWIDDWQELSPSEYKAKKEEAAGRIIDRLEKIFPGLDAGLDYLEVGTPRTHRRFLGRQDGSYGPIPRRKLRGLLKMPFNRTAIPGLYCVGDSTFPGQGLNAVAFSGFACAHRIAVDLGF | not soluble
MTLAATLREADLFRSLPKGFVQCRACAHYCALPEGGAGKCGVRRNLGGRLYLVTYGKAAALHLDPVEKKPLYHFHPGEGILSVGTVGCNLFCAFCQNWQISQFREFRVSPEGRLDRPIGEDWPPKRLVAEAEALGVRLLAYTYNEPAVWIEYAHDTARLAKARGMKNVFVTSGFETKEAWDYIRPHLDAANVDLKGFTEKFYREVCGARLKPVLESLGHLVASGVWVEVTTLLLEGYNDSDEEVRAMARFLKGLSPDIPWHLTAAHPDYRMLDLRSTRHATLVRAHAIAKEEGLRFVYVGNVLDEERNSTYCPNCGRLLVRRRGYRVEALWEAPGVCPGCGQRIPGVWTW | soluble
MNYVSLVLVSHSEEIAKGLKKLLKQIAPDVRIAAAGGSDGEIGTNALHIQEAIESVYSEKGTVVLFDLGSALLNAELALEMADRKERVRIADAPLVEGAYIAAVEAGLGKPLEEVVQACEAAKEMVKIAK | not soluble
MNNSINHKFHHISRAEYQELLAVSRGDAVADYIIDNVSILDLINGGEISGPIVIKGRYIAGVGAEYTDAPALQRIDARGATAVPGFIDAHLHIESSMMTPVTFETATLPRGLTTVICDPHEIVNVMGEAGFAWFARCAEQARQNQYLQVSSCVPALEGCDVNGASFTLEQMLAWRDHPQVTGLAEMMDYPGVISGQNALLDKLDAFRHLTLDGHCPGLGGKELNAYITAGIENCHESYQLEEGRRKLQLGMSLMIREGSAARNLNALAPLINEFNSPQCMLCTDDRNPWEIAHEGHIDALIRRLIEQHNVPLHVAYRVASWSTARHFGLNHLGLLAPGKQADIVLLSDARKVTVQQVLVKGEPIDAQTLQAEESARLAQSAPPYGNTIARQPVSASDFALQFTPGKRYRVIDVIHNELITHSHSSVYSENGFDRDDVSFIAVLERYGQRLAPACGLLGGFGLNEGALAATVSHDSHNIVVIGRSAEEMALAVNQVIQDGGGLCVVRNGQVQSHLPLPIAGLMSTDTAQSLAEQIDALKAAARECGPLPDEPFIQMAFLSLPVIPALKLTSQGLFDGEKFAFTTLEVTELEHHHHHH | soluble
MGSDKIHHHHHHMRFRERRFYMFYGKLQGENGDRFRAALQTMQELFGSVYASDNLIGLQRAGGFREDKKFVETLRRNAQTQQELSIAWRLHTLLWAAQNVMHLPGDFVECGVWKGFCFAFLTDYLDFAKSDKTLYLYDTYQGIPEAMNSEKRSNQVYEKDIAQDPNAILKVVQQRFANVPNARIVQGMVPDSFAEACPERIALLHIDMNSAASEIAALEALFDKVVPGGMIVFDDYGWTGYAAQRHAENAFMAARGHTVLEIPTGQGLVIKH | not soluble
MGSDKIHHHHHHMTDPDIGDSQDHANIISILQDLGLTENESRVYILLLEYGSMAAQDILRYLPLRQPQLYDITSSLERKGFINVLLGRPKKYEAIDPEAVVEAREQILSRNRRYFLTWANRAMETRRETTALINAKNIRSVINNSIDLINETEKTLEIETTQELFAYIREPILRKIREGCRVEILFFGTDVDLEKVQNQFTDLDVDVRYVSPGQFFTVISDEKNSVFMPRSVAMNTDIERYGYVIRDKDMSWFITHNFFVGWYRGNRIKDHSVVAPYTYHSQRILISDLKRIFDQKGRVHGVLEGIVRSTGDRFTSEGEISEINSDTEIINFVFKTDRGEYTVGGYDSQIEDIVMKSFTVASFG | not soluble
MGSDKIHHHHHHMPHSVPPLTDIGPLPTASTVRTVVFSDFDETYLAHSGTPEQVRSRQALENYLEDAGERHGLLFGWVTGSSLSSVLGKARRHGLRFLPHFIACSLGTELHVISEAGIQPEPGWQRRMLTTGEHLEGLAEEAFRELRTRGVPLVPQSCRAPGSRVISYYYFAQDPERDARQLALIRRTADRLSLGVNLSRCNPAAGDPDDCYDVDFLPRDCGKRHIVEYICRLYAVSEADAFAFGDSGNDLEMLTAVGRGLLVGNCTEEARARYPQVSARSHADAILSELRGVLP | not soluble
